US20210261965A1

Molecular target: Phosphatidylserine decarboxylase (PSD/PISD), purified
Experiment: microscale thermophoresis (MST), fluorescently labeled purified SMAC, Monolith-NT115

Sequence of Phosphatidylserine decarboxylase (PSD/PISD), purified (B1AKM7 whole entry): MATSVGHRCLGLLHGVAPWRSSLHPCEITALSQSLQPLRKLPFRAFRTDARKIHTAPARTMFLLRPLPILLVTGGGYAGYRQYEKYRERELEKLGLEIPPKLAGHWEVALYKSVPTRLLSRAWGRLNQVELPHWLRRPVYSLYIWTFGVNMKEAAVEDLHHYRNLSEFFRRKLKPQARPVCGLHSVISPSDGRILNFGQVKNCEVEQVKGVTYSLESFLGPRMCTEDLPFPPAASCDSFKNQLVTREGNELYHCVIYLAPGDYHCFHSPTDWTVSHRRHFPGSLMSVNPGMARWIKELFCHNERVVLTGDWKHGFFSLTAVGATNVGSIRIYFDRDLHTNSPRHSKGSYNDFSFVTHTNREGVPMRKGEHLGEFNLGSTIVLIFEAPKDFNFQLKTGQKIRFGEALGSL

purified SMAC/Diablo (second mitochondria-derived activator of caspase/direct inhibitor of apoptosis-binding protein with low pI) (from UniProt Q9NR28 56-239)
Kd: 100 nM
